Measurements from patent publication US20240262869A1.
pKd: −log10 of the molar value. Several values for one entry are separate records, joined by “and”; a condition that tells them apart may be missing. Equal entries are not always repeated. Where two headings read alike, the source gives them in different places.

Experiments:
ACE2-hFc (human) [1] = target: ACE2-hFc (human) (UniProt Q9BYF1)
[2] = target: neutralizing antibody CR3022
ACE2-hFc (human) [3] = target: ACE2-hFc (human) (UniProt Q9BYF1); remark: listed apart in the source
ACE2-hFc (human) [4] = target: ACE2-hFc (human) (UniProt Q9BYF1); remark: listed apart in the source
ACE2-hFc (human) [5] = target: ACE2-hFc (human) (UniProt Q9BYF1); remark: listed apart in the source
[6] = target: neutralizing antibody CR3022; assay: SPR, immobilized CR3022
[7] = target: neutralizing antibody CR3022; assay: SPR, CR3022 captured on Protein G, tagless pInCV02R as analyte (FIG. 11D)
[8] = target: neutralizing antibody CR3022; remark: listed apart in the source
[9] = target: neutralizing antibody CR3022; remark: listed apart in the source
[10] = target: neutralizing antibody CR3022; assay: SPR (ProteOn XPR36), CR3022 captured on Protein G
[11] = target: neutralizing antibody CR3022; remark: listed apart in the source

Chain of ACE2-hFc (human) (Q9BYF1 18-740 limits assumed): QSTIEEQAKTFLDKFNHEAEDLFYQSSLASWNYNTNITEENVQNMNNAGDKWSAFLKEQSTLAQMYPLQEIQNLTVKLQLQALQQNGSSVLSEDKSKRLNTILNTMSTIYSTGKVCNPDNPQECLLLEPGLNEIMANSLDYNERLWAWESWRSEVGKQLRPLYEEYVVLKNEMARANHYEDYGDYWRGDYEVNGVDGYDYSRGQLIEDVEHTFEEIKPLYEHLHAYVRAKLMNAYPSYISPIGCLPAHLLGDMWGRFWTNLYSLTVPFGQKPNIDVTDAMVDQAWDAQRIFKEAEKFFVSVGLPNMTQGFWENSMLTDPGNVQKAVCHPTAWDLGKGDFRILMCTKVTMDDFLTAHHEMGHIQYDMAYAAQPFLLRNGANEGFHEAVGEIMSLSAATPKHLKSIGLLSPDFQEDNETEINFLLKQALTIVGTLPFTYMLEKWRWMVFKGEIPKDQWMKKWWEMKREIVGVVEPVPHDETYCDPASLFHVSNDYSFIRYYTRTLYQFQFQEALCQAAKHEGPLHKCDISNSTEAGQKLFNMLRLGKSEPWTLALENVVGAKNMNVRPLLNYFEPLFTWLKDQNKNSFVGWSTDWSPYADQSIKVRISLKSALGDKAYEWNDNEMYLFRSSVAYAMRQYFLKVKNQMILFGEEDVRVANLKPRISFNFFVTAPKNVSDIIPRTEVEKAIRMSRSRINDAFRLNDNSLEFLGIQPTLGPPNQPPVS

mInCV29R (SARS CoV-2 RBD with GlyIZ at C-terminal and EIS at the N-terminal) (ligand; other documents disagree on this pair)
pKd (ACE2-hFc (human) [1]): 8.52 | koff (ACE2-hFc (human) [1]): 0.0004 s⁻¹ | kon (ACE2-hFc (human) [1]): 130000 M⁻¹ s⁻¹

mInCV26R (SARS CoV-2 RBD with hCMP at the C-terminal and EIS at the N-terminal) (ligand)
kon [2]: 480000 M⁻¹ s⁻¹

MsDPS2-SpyTag-mRBD-SpyCatcher conjugate (other; other documents disagree on this pair)
kon (ACE2-hFc (human) [3]): > 1e+06 M⁻¹ s⁻¹ | kon (ACE2-hFc (human) [1]): 2.3e+06 M⁻¹ s⁻¹

mInCV21R (SARS CoV-2 hCMP-RBD) having EIS at the N-terminal (ligand; other documents disagree on this pair)
pKd (ACE2-hFc (human) [4]): > 9.00 | pKd (ACE2-hFc (human) [5]): 9.68 | koff (ACE2-hFc (human) [5]): 8.2e-05 s⁻¹ | kon (ACE2-hFc (human) [5]): 400000 M⁻¹ s⁻¹ | kon (ACE2-hFc (human) [1]): 200000 M⁻¹ s⁻¹

mInCV29R (SARS CoV-2 RBD with GlyIZ at C-terminal and EIS at the N-terminal) (ligand)
pKd [2]: 8.32 | koff [2]: 0.00097 s⁻¹ | kon [2]: 200000 M⁻¹ s⁻¹ | pKd [6]: 8.52 and 8.30

pInCV02R (SARS CoV-2 RBD N-1 (332-532)) (from UniProt P0DTC2 332-532) (ligand)
pKd [7]: 7.52 | pKd [8]: 7.53

MsDPS2-SpyTag-mRBD-SpyCatcher conjugate
kon [9]: > 1e+06 M⁻¹ s⁻¹ | kon [2]: 4.2e+06 M⁻¹ s⁻¹

mInCV01R (SARS CoV-2 RBD) having EIS at the N-terminal (from UniProt P0DTC2 331-532) (ligand)
pKd [10]: 8.89

mInCV21R (SARS CoV-2 hCMP-RBD) having EIS at the N-terminal (ligand)
pKd [11]: > 9.00 | kon [2]: 310000 M⁻¹ s⁻¹

mInCV26R (SARS CoV-2 RBD with hCMP at the C-terminal and EIS at the N-terminal) (ligand; other documents disagree on this pair)
kon (ACE2-hFc (human) [1]): 360000 M⁻¹ s⁻¹
